Substrate: O=C1NC2C=CC1C2
Test: purified protein
Settings: free enzyme, 50 mM phosphate pH 7.0, 70°C (standard assay), 4.6-32.2 mM substrate, racemate taken as the substrate (not stated for the kinetics), only (+) enantiomer hydrolysed

| Protein | Km | Km (preparation has a low-) |
| --- | --- | --- |
| Cbd-Linker-Gla (cbd-linker-gla fusion enzyme; (+) γ-lactamase Gla) (Saccharolobus solfataricus P2) (protein) MGIKLPTLEDLREISKQFNLDLEDEELKSFLQLLKLQLESYERLDSLPDYTPRVKYQRTLGRPPMKEENPYGALVWITSIKGKEEGKLKGKRICIKDNVMIAGIPMLNGSKMLEGFVPHMDATVVSRILDEAGEIVAKTTCEDLCFSGGSHTSYPWPVLNPRNPEYMAGGSSSGSAVAVASGYCDMAVGGDQGGSIRIPSSWVGIYGLKPTHGLVPYTGAFSIEPTLDHLGPMANTVKDVALLLEVIAGRDELDSRQPDSLPPPPVKPYSKLIDGDVKDMKVGIVKEGFNWSNSEKDVDELVLDSAKKLEDYGIKVEDTSIPLHRMGLDIWTPIAIEGATATMILGSGVGWGRKGLFETQIADFFGNSLKSRARDLPNTVKGVLMLGYLMIKMYNNRYYAKARNLSIVLKEAYDSALRKYDALIMPTTPMKAMRYKSEPGFDEYFIMALGMINNTAPFDVTGHPAMNIPVGYSNGLPVGLMIIGRHFEEDKVLKLANVFERIKK | 14.3 ± 1.6 mmol/L |  |
| Gla-Linker-Cbd (gla-linker-cbd fusion enzyme; (+) γ-lactamase Gla) (Saccharolobus solfataricus P2) (protein) MGIKLPTLEDLREISKQFNLDLEDEELKSFLQLLKLQLESYERLDSLPDYTPRVKYQRTLGRPPMKEENPYGALVWITSIKGKEEGKLKGKRICIKDNVMIAGIPMLNGSKMLEGFVPHMDATVVSRILDEAGEIVAKTTCEDLCFSGGSHTSYPWPVLNPRNPEYMAGGSSSGSAVAVASGYCDMAVGGDQGGSIRIPSSWVGIYGLKPTHGLVPYTGAFSIEPTLDHLGPMANTVKDVALLLEVIAGRDELDSRQPDSLPPPPVKPYSKLIDGDVKDMKVGIVKEGFNWSNSEKDVDELVLDSAKKLEDYGIKVEDTSIPLHRMGLDIWTPIAIEGATATMILGSGVGWGRKGLFETQIADFFGNSLKSRARDLPNTVKGVLMLGYLMIKMYNNRYYAKARNLSIVLKEAYDSALRKYDALIMPTTPMKAMRYKSEPGFDEYFIMALGMINNTAPFDVTGHPAMNIPVGYSNGLPVGLMIIGRHFEEDKVLKLANVFERIKK |  | 5.7 ± 0.1 mmol/L |

— publication PMC4041915, “CBD binding domain fused γ-lactamase from Sulfolobus solfataricus is an efficient catalyst for (-) γ-lactam production” (BMC Biotechnology, 2014)
